According to PMC6277958, “Crystal structure of the Agrobacterium tumefaciens type VI effector–immunity complex” (Acta Crystallographica. Section F, Structural Biology …, 2018):

Target: the molecule itself
Experiment: SEC; AtTai4 alone in solution; conditions not told (purification used a HiLoad Superdex 75 column)

B1: T6SS amidase immunity protein 4 (Tai4) from Agrobacterium tumefaciens, residues 26–129, expressed alone from pCold-GST (natural protein, UniProt A9CGG9 26-129, looked up)
chain: AERTWIFSGAELKQAIEGKLAPDVSDPEMRRLVSVAKSSAYIAGVADLTSGSDWCGAGAVAPHELTDRIYTYLGDMPAEKLDEQAATLVREALKVSFPCEQKSN
notes: codon-optimized synthetic gene; His6-GST tag removed with Turbo3C protease; Disulfide bond between Cys80 and Cys124 in each protomer; also called AtTai4; ATU4346; source: E. coli Rosetta 2 (DE3), purified (Ni-NTA, Resource Q, HiLoad Superdex 75); not shown: His6, N-terminal, cleaved; GST, N-terminal, cleaved
stoichiometry N: 2
